Results from IntAct's records for PubMed 31515488.

B1: Beta-taxilin (Homo sapiens), Q8N3L3 (parent)
chain: MEANHSEQLSAERQSTPPGDSSSLPSHNGLEKEDGQDSPTPVQPPEKEASVHPDISEELNRQLEDIINTYGSAASTAGKEGSARASEQPENAESPDNEDGDCEETTEEAGREPVASGEPPTVKEPVSNKEQKLEKKILKGLGKEANLLMQNLNKLQTPEEKFDFLFKKYAELLDEHRTEQKKLKLLQKKQVQIQKEKDQLQGEHSRAILARSKLESLCRELQRHNKTLKEEALQRAREEEEKRKEITSHFQSTLTDIQGQIEQQSERNMKLCQENTELAEKLKSIIDQYELREEHLDKIFKHRELQQKLVDAKLEQAQEMMKEAEERHKREKEYLLNQAAEWKLQAKVLKEQETVLQAQLTLYSGRFEEFQSTLTKSNEVFATFKQEMDKTTKKMKKLEKDTATWKARFENCNKALLDMIEEKALRAKEYECFVMKIGRLENLCRALQEERNELHKKIRDAEISEKDDQSQHNSDEEPESNVSVDQEIDAEEVNSVQTAVKNLATAFMIIHHPESTPHQSKETQPEIGSSQESADAALKEPEQPPLIPSRDSESPLPPLTPQAEAEGGSDAEPPSKASNSPAGLGAETQCEGLPVGAQADQASWKPEAEASGQAPQAPTEASLQKMEADVPAPACAAEEHVAAMVPACEPSRQPPRAAAEELPVGASAGPQPRNVADTNLEGVD
B2: Conserved oligomeric Golgi complex subunit 7 (Homo sapiens), P83436 (parent)
chain: MDFSKFLADDFDVKEWINAAFRAGSKEAASGKADGHAATLVMKLQLFIQEVNHAVEETSHQALQNMPKVLRDVEALKQEASFLKEQMILVKEDIKKFEQDTSQSMQVLVEIDQVKSRMQLAAESLQEADKWSTLSADIEETFKTQDIAVISAKLTGMQNSLMMLVDTPDYSEKCVHLEALKNRLEALASPQIVAAFTSQAVDQSKVFVKVFTEIDRMPQLLAYYYKCHKVQLLAAWQELCQSDLSLDRQLTGLYDALLGAWHTQIQWATQVFQKPHEVVMVLLIQTLGALMPSLPSCLSNGVERAGPEQELTRLLEFYDATAHFAKGLEMALLPHLHEHNLVKVTELVDAVYDPYKPYQLKYGDMEESNLLIQMSAVPLEHGEVIDCVQELSHSVNKLFGLASAAVDRCVRFTNGLGTCGLLSALKSLFAKYVSDFTSTLQSIRKKCKLDHIPPNSLFQEDWTAFQNSIRIIATCGELLRHCGDFEQQLANRILSTAGKYLSDSCSPRSLAGFQESILTDKKNSAKNPWQEYNYLQKDNPAEYASLMEILYTLKEKGSSNHNLLAAPRAALTRLNQQAHQLAFDSVFLRIKQQLLLISKMDSWNTAGIGETLTDELPAFSLTPLEYISNIGQYIMSLPLNLEPFVTQEDSALELALHAGKLPFPPEQGDELPELDNMADNWLGSIARATMQTYCDAILQIPELSPHSAKQLATDIDYLINVMDALGLQPSRTLQHIVTLLKTRPEDYRQVSKGLPRRLATTVATMRSVNY
B3: Kelch-like protein 2 (Homo sapiens), O95198 (parent)
chain: METPPLPPACTKQGHQKPLDSKDDNTEKHCPVTVNPWHMKKAFKVMNELRSQNLLCDVTIVAEDMEISAHRVVLAACSPYFHAMFTGEMSESRAKRVRIKEVDGWTLRMLIDYVYTAEIQVTEENVQVLLPAAGLLQLQDVKKTCCEFLESQLHPVNCLGIRAFADMHACTDLLNKANTYAEQHFADVVLSEEFLNLGIEQVCSLISSDKLTISSEEKVFEAVIAWVNHDKDVRQEFMARLMEHVRLPLLPREYLVQRVEEEALVKNSSACKDYLIEAMKYHLLPTEQRILMKSVRTRLRTPMNLPKLMVVVGGQAPKAIRSVECYDFKEERWHQVAELPSRRCRAGMVYMAGLVFAVGGFNGSLRVRTVDSYDPVKDQWTSVANMRDRRSTLGAAVLNGLLYAVGGFDGSTGLSSVEAYNIKSNEWFHVAPMNTRRSSVGVGVVGGLLYAVGGYDGASRQCLSTVECYNATTNEWTYIAEMSTRRSGAGVGVLNNLLYAVGGHDGPLVRKSVEVYDPTTNAWRQVADMNMCRRNAGVCAVNGLLYVVGGDDGSCNLASVEYYNPTTDKWTVVSSCMSTGRSYAGVTVIDKPL
partner: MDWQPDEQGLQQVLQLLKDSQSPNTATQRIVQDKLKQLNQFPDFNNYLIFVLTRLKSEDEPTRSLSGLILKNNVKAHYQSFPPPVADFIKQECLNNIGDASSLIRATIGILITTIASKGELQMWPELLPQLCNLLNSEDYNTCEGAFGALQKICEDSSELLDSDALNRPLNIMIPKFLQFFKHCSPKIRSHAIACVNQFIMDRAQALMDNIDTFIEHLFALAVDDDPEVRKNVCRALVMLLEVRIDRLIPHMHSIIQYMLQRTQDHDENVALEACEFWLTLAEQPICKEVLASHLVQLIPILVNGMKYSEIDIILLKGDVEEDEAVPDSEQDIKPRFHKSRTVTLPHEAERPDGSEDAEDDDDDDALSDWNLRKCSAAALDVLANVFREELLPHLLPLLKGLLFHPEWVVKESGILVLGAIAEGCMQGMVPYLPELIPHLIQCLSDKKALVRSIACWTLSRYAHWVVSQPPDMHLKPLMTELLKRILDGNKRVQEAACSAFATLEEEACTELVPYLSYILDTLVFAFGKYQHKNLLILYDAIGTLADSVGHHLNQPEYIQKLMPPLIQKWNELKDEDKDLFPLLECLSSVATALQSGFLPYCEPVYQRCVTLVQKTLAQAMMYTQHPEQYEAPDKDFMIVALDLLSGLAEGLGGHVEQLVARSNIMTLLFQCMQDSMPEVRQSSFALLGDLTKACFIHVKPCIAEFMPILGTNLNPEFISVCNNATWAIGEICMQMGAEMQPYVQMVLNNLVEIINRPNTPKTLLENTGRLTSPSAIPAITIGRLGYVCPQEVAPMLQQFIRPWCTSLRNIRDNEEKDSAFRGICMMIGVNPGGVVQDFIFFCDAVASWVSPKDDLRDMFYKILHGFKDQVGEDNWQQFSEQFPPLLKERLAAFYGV
B4: Proto-oncogene serine/threonine-protein kinase mos (Homo sapiens), P00540 (parent)
chain: MPSPLALRPYLRSEFSPSVDARPCSSPSELPAKLLLGATLPRAPRLPRRLAWCSIDWEQVCLLQRLGAGGFGSVYKATYRGVPVAIKQVNKCTKNRLASRRSFWAELNVARLRHDNIVRVVAASTRTPAGSNSLGTIIMEFGGNVTLHQVIYGAAGHPEGDAGEPHCRTGGQLSLGKCLKYSLDVVNGLLFLHSQSIVHLDLKPANILISEQDVCKISDFGCSEKLEDLLCFQTPSYPLGGTYTHRAPELLKGEGVTPKADIYSFAITLWQMTTKQAPYSGERQHILYAVVAYDLRPSLSAAVFEDSLPGQRLGDVIQRCWRPSAAQRPSARLLLVDLTSLKAELG
partner: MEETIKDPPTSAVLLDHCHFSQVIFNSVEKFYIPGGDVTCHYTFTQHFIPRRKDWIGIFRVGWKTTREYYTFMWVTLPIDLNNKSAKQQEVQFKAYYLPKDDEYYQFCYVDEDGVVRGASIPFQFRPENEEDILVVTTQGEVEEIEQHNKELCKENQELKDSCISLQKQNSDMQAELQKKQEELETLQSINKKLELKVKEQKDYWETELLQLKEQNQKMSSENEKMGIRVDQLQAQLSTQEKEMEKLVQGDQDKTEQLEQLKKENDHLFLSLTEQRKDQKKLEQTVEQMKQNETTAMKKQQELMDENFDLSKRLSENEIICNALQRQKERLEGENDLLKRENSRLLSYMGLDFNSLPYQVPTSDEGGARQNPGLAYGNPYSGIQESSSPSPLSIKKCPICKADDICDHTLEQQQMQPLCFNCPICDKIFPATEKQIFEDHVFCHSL
B5: Meiotic recombination protein DMC1/LIM15 homolog (Homo sapiens), Q14565 (parent)
chain: MKEDQVVAEEPGFQDEEESLFQDIDLLQKHGINVADIKKLKSVGICTIKGIQMTTRRALCNVKGLSEAKVDKIKEAANKLIEPGFLTAFEYSEKRKMVFHITTGSQEFDKLLGGGIESMAITEAFGEFRTGKTQLSHTLCVTAQLPGAGGYPGGKIIFIDTENTFRPDRLRDIADRFNVDHDAVLDNVLYARAYTSEHQMELLDYVAAKFHEEAGIFKLLIIDSIMALFRVDFSGRGELAERQQKLAQMLSRLQKISEEYNVAVFVTNQMTADPGATMTFQADPKKPIGGHILAHASTTRISLRKGRGELRIAKIYDSPEMPENEATFAITAGGIGDAKE
partner: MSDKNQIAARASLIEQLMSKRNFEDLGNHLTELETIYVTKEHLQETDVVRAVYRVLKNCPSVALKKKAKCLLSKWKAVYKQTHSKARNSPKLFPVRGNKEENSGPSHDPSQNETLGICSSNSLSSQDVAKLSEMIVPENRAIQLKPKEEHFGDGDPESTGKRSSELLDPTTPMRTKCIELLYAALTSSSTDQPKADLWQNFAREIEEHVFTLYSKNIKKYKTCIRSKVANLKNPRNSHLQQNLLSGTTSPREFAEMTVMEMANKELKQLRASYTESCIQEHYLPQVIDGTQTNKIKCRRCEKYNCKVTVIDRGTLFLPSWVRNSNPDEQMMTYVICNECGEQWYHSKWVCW
B6: MAGUK p55 subfamily member 2 (Homo sapiens), Q14168-2 (parent)
chain: MPVAATNSETAMQQVLDNLGSLPSATGAAELDLIFLRGIMESPIVRSLAKAHERLEETKLEAVRDNNLELVQEILRDLAHVAEQSSTAAELAHILQEPHFQSLLETHDSVASKTYETPPPSPGLDPTFSNQPVPPDAVRMVGIRKTAGEHLGVTFRVEGGELVIARILHGGMVAQQGLLHVGDIIKEVNGQPVGSDPRALQELLRNASGSVILKILPSYQEPHLPRQVFVKCHFDYDPARDSLIPCKEAGLRFNAGDLLQIVNQDDANWWQACHVEGGSAGLIPSQLLEEKRKAFVKRDLELTPNSGTLCGSLSGKKKKRMMYLTTKNAEFDRHELLIYEEVARMPPFRRKTLVLIGAQGVGRRSLKNKLIMWDPDRYGTTVPYTSRRPKDSEREGQGYSFVSRGEMEADVRAGRYLEHGEYEGNLYGTRIDSIRGVVAAGKVCVLDVNPQAVKVLRTAEFVPYVVFIEAPDFETLRAMNRAALESGISTKQLTEADLRRTVEESSRIQRGYGHYFDLCLVNSNLERTFRELQTAMEKLRTEPQWVPVSWVY
partner: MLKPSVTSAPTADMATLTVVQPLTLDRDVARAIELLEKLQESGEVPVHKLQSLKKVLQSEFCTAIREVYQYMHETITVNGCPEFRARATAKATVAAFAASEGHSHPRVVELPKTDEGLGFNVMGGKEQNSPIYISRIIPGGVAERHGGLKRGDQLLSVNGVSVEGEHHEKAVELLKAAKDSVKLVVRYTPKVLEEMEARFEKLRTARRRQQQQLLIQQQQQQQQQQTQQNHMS
B7: Nuclear protein AMMECR1 (Homo sapiens), Q9Y4X0 (parent)
chain: MAAGCCGVKKQKLSSSPPSGSGGGGGASSSSHCSGESQCRAGELGLGGAGTRLNGLGGLTGGGSGSGCTLSPPQGCGGGGGGIALSPPPSCGVGTLLSTPAAATSSSPSSSSAASSSSPGSRKMVVSAEMCCFCFDVLYCHLYGYQQPRTPRFTNEPYPLFVTWKIGRDKRLRGCIGTFSAMNLHSGLREYTLTSALKDSRFPPMTRDELPRLFCSVSLLTNFEDVCDYLDWEVGVHGIRIEFINEKGSKRTATYLPEVAKEQGWDHIQTIDSLLRKGGYKAPITNEFRKTIKLTRYRSEKMTLSYAEYLAHRQHHHFQNGIGHPLPPYNHYS
partner: B4 partner

Variants of: B1
Conditions: with exoc5_human EXOC5, O00471
exoc5_human EXOC5, O00471, sequence (O00471 whole entry): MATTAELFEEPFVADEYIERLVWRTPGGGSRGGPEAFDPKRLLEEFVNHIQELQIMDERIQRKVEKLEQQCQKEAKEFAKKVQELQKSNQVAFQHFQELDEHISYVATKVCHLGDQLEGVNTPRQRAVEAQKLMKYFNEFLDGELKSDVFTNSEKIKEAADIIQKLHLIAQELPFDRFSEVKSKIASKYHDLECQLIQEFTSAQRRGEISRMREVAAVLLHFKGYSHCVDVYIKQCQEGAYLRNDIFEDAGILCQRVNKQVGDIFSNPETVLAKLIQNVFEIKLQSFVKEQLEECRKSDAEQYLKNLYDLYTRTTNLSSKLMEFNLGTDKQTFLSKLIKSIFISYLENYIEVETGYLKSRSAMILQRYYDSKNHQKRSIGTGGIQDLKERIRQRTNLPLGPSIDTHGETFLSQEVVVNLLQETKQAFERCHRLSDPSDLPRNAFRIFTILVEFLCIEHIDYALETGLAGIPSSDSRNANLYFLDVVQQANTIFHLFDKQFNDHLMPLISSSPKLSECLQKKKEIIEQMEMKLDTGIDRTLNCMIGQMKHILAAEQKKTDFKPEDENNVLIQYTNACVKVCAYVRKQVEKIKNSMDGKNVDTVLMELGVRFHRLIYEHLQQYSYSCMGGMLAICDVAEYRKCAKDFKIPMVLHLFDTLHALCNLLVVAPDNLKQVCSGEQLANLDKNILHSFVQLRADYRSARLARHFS

Variant	effect of a mutation on the interaction
I527T	with no effect

Variants of: B1
Conditions: with mbip1_human MBIP

Variant	effect of a mutation on the interaction
I527T	with no effect

Variants of: B1
Conditions: with cep70_human CEP70, Q8NHQ1
cep70_human CEP70, Q8NHQ1, sequence (Q8NHQ1 whole entry): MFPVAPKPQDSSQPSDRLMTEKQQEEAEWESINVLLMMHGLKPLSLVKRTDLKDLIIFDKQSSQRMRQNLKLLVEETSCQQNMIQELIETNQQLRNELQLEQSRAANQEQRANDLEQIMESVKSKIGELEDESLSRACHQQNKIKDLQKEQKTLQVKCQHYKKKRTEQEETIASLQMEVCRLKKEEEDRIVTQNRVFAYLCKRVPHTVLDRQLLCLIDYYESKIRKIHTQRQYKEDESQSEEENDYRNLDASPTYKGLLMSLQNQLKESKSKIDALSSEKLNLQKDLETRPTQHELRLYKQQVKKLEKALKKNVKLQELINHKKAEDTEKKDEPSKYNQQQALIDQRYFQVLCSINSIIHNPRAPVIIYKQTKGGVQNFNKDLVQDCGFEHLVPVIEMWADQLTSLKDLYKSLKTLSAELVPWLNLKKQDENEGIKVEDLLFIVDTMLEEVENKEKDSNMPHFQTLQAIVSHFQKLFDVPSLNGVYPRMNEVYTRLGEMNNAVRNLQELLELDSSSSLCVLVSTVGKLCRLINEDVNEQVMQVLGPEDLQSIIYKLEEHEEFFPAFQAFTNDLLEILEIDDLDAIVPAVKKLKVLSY

Variant	effect of a mutation on the interaction
T361A	with no effect
T523I	with no effect

Variants of: B2
Conditions: with taxb1_human TAX1BP1, Q86VP1
taxb1_human TAX1BP1, Q86VP1, sequence (Q86VP1 whole entry): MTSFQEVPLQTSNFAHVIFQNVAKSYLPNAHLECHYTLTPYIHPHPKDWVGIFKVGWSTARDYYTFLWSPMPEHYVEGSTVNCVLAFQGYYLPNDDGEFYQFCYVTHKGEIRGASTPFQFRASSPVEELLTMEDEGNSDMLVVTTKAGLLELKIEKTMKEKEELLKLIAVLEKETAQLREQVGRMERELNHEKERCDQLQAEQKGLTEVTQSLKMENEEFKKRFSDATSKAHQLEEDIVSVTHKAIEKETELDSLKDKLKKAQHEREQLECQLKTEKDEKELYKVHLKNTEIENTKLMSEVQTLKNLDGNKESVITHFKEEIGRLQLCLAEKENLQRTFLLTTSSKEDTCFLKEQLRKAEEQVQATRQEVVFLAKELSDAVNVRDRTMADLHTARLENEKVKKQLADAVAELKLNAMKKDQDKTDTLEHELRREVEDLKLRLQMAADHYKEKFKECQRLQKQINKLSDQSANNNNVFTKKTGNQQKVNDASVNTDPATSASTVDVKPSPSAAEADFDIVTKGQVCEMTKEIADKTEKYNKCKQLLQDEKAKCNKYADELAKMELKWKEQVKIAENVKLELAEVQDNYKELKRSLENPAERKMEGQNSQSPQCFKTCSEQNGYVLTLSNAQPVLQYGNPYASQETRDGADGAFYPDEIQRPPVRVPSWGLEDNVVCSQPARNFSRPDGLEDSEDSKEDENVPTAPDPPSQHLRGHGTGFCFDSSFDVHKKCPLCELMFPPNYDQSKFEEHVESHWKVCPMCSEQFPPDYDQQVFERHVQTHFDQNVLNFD

Variant	effect of a mutation on the interaction
Q749K	with no effect

Variants of: B3
Conditions: with tnpo2_human TNPO2, O14787

Variant	effect of a mutation on the interaction
A480T	with no effect
S68A	with no effect

Variants of: B4
Conditions: with caco2_human CALCOCO2, Q13137

Variant	effect of a mutation on the interaction
A123T	disrupting interaction strength
A105S	with no effect

Variants of: B5
Conditions: with teanc_human TCEANC

Variant	effect of a mutation on the interaction
I288T	with no effect

Variants of: B6
Conditions: with lin7a_human LIN7A

Variant	effect of a mutation on the interaction
R500W	with no effect

Variants of: B7
Conditions: with caco2_human CALCOCO2, Q13137

Variant	effect of a mutation on the interaction
R207G	disrupting interaction strength
